According to publication PMC4587348 (Archives of biochemistry and biophysics, 2015):

How the values were obtained:
[1] = biological target: ScHIcDH (homoisocitrate dehydrogenase from Saccharomyces cerevisiae) (Saccharomyces cerevisiae, UniProt P40495, D271N); assay: initial rate, NADH formation at […] nm, dead-end inhibition; format: biochemical
[2] = tested on: Tyr150; assay: kinetics; conditions: cited from earlier work
[3] = tested on: Lys206; assay: kinetics; conditions: Steady-state turnover at saturating reactants (V/Et); cited from earlier work

ScHIcDH (homoisocitrate dehydrogenase from Saccharomyces cerevisiae), sequence (P40495 23-371 D271N): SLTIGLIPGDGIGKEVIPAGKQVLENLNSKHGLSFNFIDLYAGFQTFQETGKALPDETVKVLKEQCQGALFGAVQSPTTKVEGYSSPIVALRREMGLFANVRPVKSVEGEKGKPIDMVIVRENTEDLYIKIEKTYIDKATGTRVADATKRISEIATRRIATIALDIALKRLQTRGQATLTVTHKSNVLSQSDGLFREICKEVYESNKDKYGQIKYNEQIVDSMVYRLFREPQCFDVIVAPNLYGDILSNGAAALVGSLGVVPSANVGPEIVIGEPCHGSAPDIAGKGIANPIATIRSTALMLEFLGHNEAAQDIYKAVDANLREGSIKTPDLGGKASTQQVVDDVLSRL

CC(=O)c1ccc[n+]([C@@H]2O[C@H](COP(=O)([O-])OP(=O)(O)OC[C@H]3O[C@@H](n4cnc5c(N)ncnc54)[C@H](O)[C@@H]3OP(=O)(O)O)[C@@H](O)[C@H]2O)c1 [3-AcPyrADP]
Ki [1]: 0.34 ± 0.05 mM

O=C(O)CS[C@H](C(=O)O)[C@@H](O)C(=O)O [Thiahomoisocitrate]
Ki [1]: 20 ± 3 mM

Homoisocitrate dehydrogenase (ScHIcDH) (Saccharomyces cerevisiae)
pKa ([2]; Steady-state turnover. V profile: enzyme saturated with NAD and MgHIc.): 9.5

Homoisocitrate dehydrogenase (ScHIcDH) K206M mutant (Saccharomyces cerevisiae; K206M)
pKa ([2]; Steady-state turnover at saturating reactants (V/Et)): 9.5

Homoisocitrate dehydrogenase (ScHIcDH) Y150F mutant (Saccharomyces cerevisiae; Y150F)
pKa [3]: 6
